For one series, the system named is Prp43. The experiment in a line: fluorescence anisotropy. For orientation: In fluorescence polarisation assays a small probe gives low polarisation when free and higher when bound to something large.
Series [1] concerns Prp43;Cmg1 (Saccharomyces cerevisiae?;Saccharomyces cerevisiae?). The experiment in a line: fluorescence anisotropy.
A further series concerns the target Prp43 1–657 (Saccharomyces cerevisiae, UniProt P53131). Particulars: ATPase assay of the truncation; details in supplement.
For another series, the target named is Prp43 92–767 (Saccharomyces cerevisiae, UniProt P53131). Particulars: ATPase assay of the truncation; details in supplement.
The target of the next series is His-GFP-tagged Prp43 (S. cerevisiae, UniProt P53131 1-767). Briefly: pull-down.
The target in series [2] is His10-ZZ-TEV-tagged full length Prp43 (S. cerevisiae, UniProt P53131 1-767). The experiment in a line: pull-down.

The text below walks through data of paper PMC4829300 (RNA Biology, 2016).

For orientation: Kd means the free concentration of one partner at which half of the binding sites on the other are occupied at equilibrium, for simple one-to-one binding. Read a low Kd as tighter binding.

Chain of His-GFP-tagged Prp43 (P53131 whole entry): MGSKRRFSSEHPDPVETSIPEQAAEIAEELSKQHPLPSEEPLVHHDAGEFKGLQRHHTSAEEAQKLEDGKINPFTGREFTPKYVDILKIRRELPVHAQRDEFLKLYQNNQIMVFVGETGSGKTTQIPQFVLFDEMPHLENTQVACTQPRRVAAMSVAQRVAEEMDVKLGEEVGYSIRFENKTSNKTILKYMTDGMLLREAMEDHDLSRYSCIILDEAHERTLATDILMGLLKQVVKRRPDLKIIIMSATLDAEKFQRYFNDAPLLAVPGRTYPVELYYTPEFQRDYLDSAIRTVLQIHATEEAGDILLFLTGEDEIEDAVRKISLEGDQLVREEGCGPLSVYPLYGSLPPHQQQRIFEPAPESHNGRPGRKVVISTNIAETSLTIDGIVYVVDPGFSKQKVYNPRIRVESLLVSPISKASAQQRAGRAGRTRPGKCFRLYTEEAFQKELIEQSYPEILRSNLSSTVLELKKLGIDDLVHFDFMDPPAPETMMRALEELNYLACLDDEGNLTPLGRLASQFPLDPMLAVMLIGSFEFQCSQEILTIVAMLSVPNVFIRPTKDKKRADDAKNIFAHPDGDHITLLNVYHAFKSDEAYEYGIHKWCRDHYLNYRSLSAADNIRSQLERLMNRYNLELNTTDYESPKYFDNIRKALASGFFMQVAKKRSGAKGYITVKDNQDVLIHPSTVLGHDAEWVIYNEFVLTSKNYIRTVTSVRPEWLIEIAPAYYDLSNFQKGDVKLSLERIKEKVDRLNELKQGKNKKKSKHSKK
Chain of His10-ZZ-TEV-tagged full length Prp43 (P53131 whole entry): as above
Chain of Prp43 1–657 (P53131 1-657): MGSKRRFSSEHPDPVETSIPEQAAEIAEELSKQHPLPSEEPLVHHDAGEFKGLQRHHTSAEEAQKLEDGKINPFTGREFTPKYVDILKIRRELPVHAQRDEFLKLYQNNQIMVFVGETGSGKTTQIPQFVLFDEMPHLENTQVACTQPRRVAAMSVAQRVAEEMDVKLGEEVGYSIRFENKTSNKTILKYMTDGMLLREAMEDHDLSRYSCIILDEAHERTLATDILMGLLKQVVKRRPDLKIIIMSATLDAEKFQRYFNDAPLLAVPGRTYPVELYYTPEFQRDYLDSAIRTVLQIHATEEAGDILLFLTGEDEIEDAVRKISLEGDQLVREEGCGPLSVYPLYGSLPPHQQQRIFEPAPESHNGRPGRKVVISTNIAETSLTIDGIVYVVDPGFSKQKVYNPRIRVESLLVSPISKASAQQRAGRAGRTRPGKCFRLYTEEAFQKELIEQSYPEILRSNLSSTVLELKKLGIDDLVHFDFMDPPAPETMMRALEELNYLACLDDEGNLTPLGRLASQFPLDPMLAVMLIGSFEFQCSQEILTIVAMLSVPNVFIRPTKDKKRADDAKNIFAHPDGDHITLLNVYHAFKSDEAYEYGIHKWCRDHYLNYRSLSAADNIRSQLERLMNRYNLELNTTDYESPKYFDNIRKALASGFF
Chain of Prp43 92–767 (P53131 92-767): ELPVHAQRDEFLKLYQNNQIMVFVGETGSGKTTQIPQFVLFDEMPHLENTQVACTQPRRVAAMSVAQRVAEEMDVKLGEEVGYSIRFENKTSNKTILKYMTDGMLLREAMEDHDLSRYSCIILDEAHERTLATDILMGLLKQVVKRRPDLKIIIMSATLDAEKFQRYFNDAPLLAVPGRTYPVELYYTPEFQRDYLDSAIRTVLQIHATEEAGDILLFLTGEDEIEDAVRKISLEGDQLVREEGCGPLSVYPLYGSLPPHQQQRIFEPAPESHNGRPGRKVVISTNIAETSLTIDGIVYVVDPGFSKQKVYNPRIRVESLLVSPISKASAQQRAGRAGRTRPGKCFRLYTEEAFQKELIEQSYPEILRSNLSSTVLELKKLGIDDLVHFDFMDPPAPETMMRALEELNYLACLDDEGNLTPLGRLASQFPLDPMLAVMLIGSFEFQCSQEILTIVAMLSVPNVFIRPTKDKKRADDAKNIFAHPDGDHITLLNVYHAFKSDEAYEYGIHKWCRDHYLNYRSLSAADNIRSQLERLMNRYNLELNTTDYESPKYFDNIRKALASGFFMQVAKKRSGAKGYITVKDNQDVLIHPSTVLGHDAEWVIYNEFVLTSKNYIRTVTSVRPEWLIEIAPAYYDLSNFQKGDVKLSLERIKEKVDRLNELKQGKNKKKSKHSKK

For fluorescein-labeled 11 nt RNA, the Kd stood at 60 nM with Prp43 and 2.3 nM in series [1].

On to `Nc1ncnc2c1ncn2[C@@H]1O[C@H](COP(=O)(O)OP(=O)(O)OP(=O)(O)O)[C@@H](O)[C@H]1O` [ATP], for which the “NADH-coupled ATPase assay (pyruvate kinase / LDH), A340” value at Prp43 1–657 is “the N- and C-terminal truncations of Prp43 themselves show ATPase activity”; at Prp43 92–767 it was “the N- and C-terminal truncations of Prp43 themselves show ATPase activity”.

B1: His10-MBP-TEV-tagged Sqs1 705–767 (domain or fragment)
chain: VKEGEIVGQNAPEIGNENIGRRMLEKLGWKSGEGLGIQGNKGISEPIFAKIKKNRSGLRHSES
Take B1: in the series with His-GFP-tagged Prp43, the binding result is on record as “binds”.

B2: His10-ZZ-TEV-tagged Cmg1 (natural protein)
chain: MEESKTKRKEDRIDLKNTPPQKKSKRDSTNDETARTSLRSIMPRGYKMMENMGYKEGETLGSNESALKEPIKVEINTKRRGIRAEKPDPSTMNDMQMSEQRFIKRESEMKNNKRLKKIWYRIQKVAFEMMGDSDLYNPGEDPRDFNVLWRSYVMQLNEEVAKNDLNNHSNNDNEDKNNMIPMVNESLEASPAIKGEKFGRPSTLIDCDTSIIGSRITKDTELAELEELSIEKRITKLNIFLRSEKYYCFFCGIKYKDEGDLYEHCPGVNEDDHK
As to B2, the binding result with His-GFP-tagged Prp43 is given as “binds”.

B3: MBP-tagged full length Cmg1 (natural protein)
chain: MEESKTKRKEDRIDLKNTPPQKKSKRDSTNDETARTSLRSIMPRGYKMMENMGYKEGETLGSNESALKEPIKVEINTKRRGIRAEKPDPSTMNDMQMSEQRFIKRESEMKNNKRLKKIWYRIQKVAFEMMGDSDLYNPGEDPRDFNVLWRSYVMQLNEEVAKNDLNNHSNNDNEDKNNMIPMVNESLEASPAIKGEKFGRPSTLIDCDTSIIGSRITKDTELAELEELSIEKRITKLNIFLRSEKYYCFFCGIKYKDEGDLYEHCPGVNEDDHK
For B3, the binding result in series [2] was “binds”.

B4: His10-ZZ-TEV-tagged Spp382 G-patch domain (amino acids 51–110) (domain or fragment)
chain: NAPTISKLTKTYGIGAKLLSSMGYVAGKGLGKDGSGITTPIETQSRPMHNAGLGMFSNTN
As for B4, in the series with His-GFP-tagged Prp43, the binding result is listed as “binds”.

B5: His10-MBP-TEV-tagged Cmg1 1–85 (domain or fragment)
chain: MEESKTKRKEDRIDLKNTPPQKKSKRDSTNDETARTSLRSIMPRGYKMMENMGYKEGETLGSNESALKEPIKVEINTKRRGIRAE
For B5, the binding result (in series [2]; in the series with His-GFP-tagged Prp43) was “binds” each time.

B6: His10-MBP-TEV-tagged Pxr1 1–82 (domain or fragment)
chain: MGLAATRTKQRFGLDPRNTAWSNDTSRFGHQFLEKFGWKPGMGLGLSPMNSNTSHIKVSIKDDNVGLGAKLKRKDKKDEFDN
Consider B6, for which the binding result with His-GFP-tagged Prp43 is reported as “binds”.
